Data taken from the nanobody polyreactivity screen of Harvey et al. (2022).

Assay: yeast display, Sf9 membrane polyspecificity reagent, FACS + sequencing; frameworks hold sequencing errors
How it was run: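 A nanobody's polyreactivity label depends on the gate it was sorted from. Yeast display cells were stained with 10% biotinylated, detergent-solubilized Sf9 membrane reagent for 1 hour at 4 °C, enriched on streptavidin microbeads and sorted by FACS. The low and high (top ~1%) gates were set on anti-HA fluorescence for expression and streptavidin fluorescence for reagent binding.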

Sequence | polyreactivity (PSR sort gate)
QVQLVESGGGLVQAGGSLRLSCAASGLNFARNAMGWYRQAPGKERELVASITSGGSTNYADSVKGRFTISRDNAKNTVYLQMNSLKPEDTAVYFCNKAYFFPYPRYRYEYWGQGTQVTVSS | high polyreactivity
QVQLVESGGGLVQAGGSLRLSCAASGRTFGSYAMGWYRPAPGKERELVAGISWSGGITYYADSVKGRFTISRDNAKNSVYLQMNSLKPEDTAVYYCAADSVVWEMEYWGQGTQVTVSS | high polyreactivity
QVQLVESGGGLVQAGGSLRLSCAASGSTLSKYAMGWYRQAPGKERELVATISIRGGNTYYADSVKGRFTFSRDNAKNTVYLQMNSLKPEDTAVYYCAARRVNAPPSYRQKAGYDYWGQGTQVTVSS | high polyreactivity
QFQLVESGGGLVQAGGSLRLSCAASGRTFWNYAMGWYRQAPGKERELVAAISVTGTNTYYADSVKGRFTISRDNAKNTVYLQMNSLKPEDTAVYYCAARGRPGLYYWGQGTQVTVSS | high polyreactivity
QVQQHESGDGLVQAVGSLRLTCAASGYISGNYYMGWYRQATGKERELVAGIDAFGSSTNYADCVKGRFTISRDNAKNTVYLQMNSLKPEDTAVYYCAARPDGDRLFYYWGQGTQVTVSS | low polyreactivity
QVQLVESGGGLVQAGGSLRLSCAASGSILLYYTMGWYIQAPGKEWELVAAISWSGGSTYYADSVKGRFTISRDNAKNTVYLLMISLKPEDTAVYYCATRSVQGSYFAGYGYWGQGTQVTVSS | low polyreactivity
QVQLVESGGGLVQAGGSLRLSCAASGGTFSGYVMGWYRQAPGKERELVAAISRRGTTTYYADSVKGRFTISRDNAKNTVYLQMISLKPEDTAVYYCAAVTRWKRTLSSFYYWGQGTQVTVSS | high polyreactivity
QVQLVESGGVLVQAGGSLRLSCAASGFTFLVYAMGWYRQAPGKERELLAAITSGSSTTYADSVKGRFTISRDNAKNTVYLQMNSLKPEDTAVYYCAARPRLDVLVKRFYYWGQGTQVTVSS | high polyreactivity
QVQLVESGGGLVQAGGSLRLSCAASGRTFSVNAMGWYRPAPGKERELVAAISWDGGSTYYADSVKGRFTISRDNAKNTVYLQMNSLKPEDTAVYYCNKDLYYAYDYWGQGTQVTVSS | low polyreactivity
QVQLVESGGGLVQAGGSIRLSCAASGRTFYLYAMGWYRQAPGKERELVAVISRRGGRTYYADSVKGRFTISRDNSKNTVYLQMNSLKPEDTAVYYCAVYSFGMGYWGQGTQVTVSS | high polyreactivity
QVQLVESGGGLVQAGGSLRLSCAASGRTSTGYAMGWYRPAPGKERELVAGIDKIGGRTYYADSVKGRFTISRDNEKNTVYLQMNSLKPEDTAVYYCNRVPRRSIRYDYWGQGTKVTVSS | high polyreactivity
QVQLVESGGGLVQAGGSLRLSCAASGRTFLINAMGWYRQAPGKEWELVAAITQSGGSTYYADSVKGRFTISRDKAKNTVYLQLNSLKPEDTAVYYCAADVPGVYPYDYWGQGTQVTVSS | low polyreactivity
QVQLVESGGGLVQAGGSLRLICAASGSIFEYYAIRLYRQAPGTERELVADITYDGGNTYYADSLKGRFTISRDNAKNTVYLQMNSLKPEDTAVYYCATEYRYWQSDYSTYFPYDYWGQGTQVTVSS | low polyreactivity
QVQLVESGGGLVQAGGSLRLSCAASGSTFRHYAMGWYRQAPGKERELVAAISSRGGSTYYADSVKGRFTISRDNAKNTVYLQMNSLKPEDTAVYYCNVVGYQRPSYRHMDYWGQGTQVTVSS | high polyreactivity
QVQLVESGGGLVQAGGSLRLSCAASGITFRYYAMGLYRQAPGKERELVAAITRSASSTFYADSVKGRFTISRDNAKNTVYLQMNSLKPEVTAVYYCAAESVRAVFPDRYKYWGQGTQVTVSS | high polyreactivity
QVQLVESGGGLVQAGGSLRLSCAASGSIFWPYAKGWYRQAPGKERELVAAISSSGTSTYYADSVKGRFTISRDNAKNTVYLQMNSLKPEDTAVYYCAKELFTYPYEYWGQGTQVTVSS | low polyreactivity
QVQLVESGGGLVQAGGSLRLSFAASGSTFGVNAMGWYRQAPGKERELVAVITRSGGSTYYADSVKGRFTISRDNAKNTVYLQMNSLKPEDTAVYYCGKSGVVDWGQGTQVTVSS | low polyreactivity
QVQLVESGGGLVQAGGSLRLSCAASGRIFVVNDMGWYRQAPGKERELVAAINSGGRTNYADSVKGRFTISRDNAKNTVYLQMNSLKPEDTAVYYCNAKRTGPWFLHVPVYYWGQGTQVTVSS | low polyreactivity
QVQHVESGGGLVQEGGRLRLSCAASGITFGANTMGWSRQAPGKERELVAAITISGGITHYADSVKGRFTISRDNAKNTVYLQMNSLKPEDTAVYYCAAGAYWRLYPYRLRNVGRMYYWGQGTQVTVSS | low polyreactivity
QVQLVESGGGLVQAGGSLRLSCAASGRIFGGYGMGWYRPAPGKQRELVAAISSGGNTKYADSVKGRFTISRDNAKNTVYLQMNSLKPEDTAVYHCAAKFAQPDYRYDYWGQGTQVTVSS | high polyreactivity
QVQLVESGGGLVQAGGSLRLSCAASGLTFRYYAMGGYRQAPGKERELDAAITSSGTSTYYADSVKGRFTISRDNAKNTVSLQMNSLKPEDTAVYYCAARYSGGTWSGYNYWGQGTQVTVSS | high polyreactivity
QVQLVESGGGLVQAGGSLRLSCAASGTTYYNAMGWYRQAPGKERELVAAIRFRSGSTYYADSVKGRFTISRDNAKNTVYLQMNSLKPEDTAVYYFAADNKRSWRYAYNYWGQGTQVTVSS | high polyreactivity

Sequence | polyreactivity (PSR sort gate)
QVQLVESGGGLVQAGGSLRLSCAASGSTFYWYAMGWYRHAPGKEREFVADIDWSGGSTYYADSVKGRFTISLDNAKNTVYLQMNSLKPEDTAVYYCAAVGAAGQDNYWGQGTQVTVSS | high polyreactivity
QVQLVESGGGLVQAGGSLRLSCAASGLIFRWYAMGWYRQAPGKERELDAAISTSGGRTYYADSVKGRFTISRDNAKNTVYLQMNSLKPEDTAVYYCNAQHASWYTAYSVSFDYWGQGTQVTVSS | low polyreactivity
QVQLVESVGGLVQAGGSLRLSCAASGRTFYGYAMGWYRKAPGKERELVAAISTGGGRTYYADSVKGRFTISRDNAKNTVYLQMNSLKPEDTAVYYCAARRAYPHYRVDYWGQGTQVTVSS | high polyreactivity
QDQLVESGGGLVQSGGSLRLSCAASGYIFGPYAMGWYRQAPGKEREFVATISGSVGSTYYADSVKGRFTISRDNGKNTVYLQMNSLKPQDTAVYYCNKDHSVYGYEYWGQGTQVTVSS | low polyreactivity
QVQLVESGGGLVQAGGSLRLSCAASGFSFSRYAMGWYRQAPGKDRELVATITSGGGGTYYADSVKGRFTISRDNAKNTVYLQKNSLKPEDTAVYYCAKYSPYYRNGLDYWGHGTQVTVSS | high polyreactivity
QVQLVESGGGLVQAGGSLRLSSAASGIIFGGSAMGWYRQAPGKEWELVAAISRSGGSTYYADSVKGRFTISRDNPKKTVYLQMNSLKPEDTAVYYCNAVPRRKGFNYWGQGTQVTVSS | high polyreactivity
QVQLVESGGGLVQAGGSLRLRCAASGLTVRNYAMGWYRQAPRKERDLVAAISSGGGSTYYADSVKGRFTISRDNAKNTVYLQMNSLKPEDTAVYYCAAKRHTSLYVYYYWGQGTQVTVSS | high polyreactivity
PVQLVESGGGIVQAGGSLRLSCAASGTSFEYNAMGWSRPAPGKERELVAAITWSVGSTYYADSVKGRFTISRDNAKNTVYLQMNSLKPEDTAVYYCAAFDTASVYEFDYWGQGTQVTVSS | low polyreactivity
QVQLVESGGGLVQAGGSLRLSCAASGRIFYFNAMGWYRQAPGKERELVADISTGGRTNYADSVKGRFTISRDNAKNTVYLQMNSLNPEDTAVYYCNAEPYTSSGGYRGYDFDYWGQGTQVTVSS | low polyreactivity
QVQLVESGGGLVQAGGSLRLSCAASGSIFDSNAMGWYRQAPGKERELVAAINRSDASTYYADSVKGRFTISRDNAKNTDYLQMTSPQPEGTAVYYCGVEVYVYNVHIYDYWGQGTQVTVSS | low polyreactivity
QVQLVESGGGLVQAGGSLRLSCAASGFIFGHNAMGWYRQAPGKQRELVAAITYSGGSTYYADSVKGRFTISRDNAKNTVYLQMNSLKPEDTAVSYSAASNQWSSTYLTYGYYYWGQGTQVTVSS | low polyreactivity
QVQLVESGGGLVQAGGSLRLSCAASGRTFPAYAMGWYRQAPGKERELVAAISSGTSTYADSVKGRFTISRDNAKNTVYLQMNSLKPEDTAVYYCAAGYDRVHSVAGYDYWGQGTQVTVSS | low polyreactivity
QVQLVESGGGLVQAGGSLRLSCAASGYTFDYYAMGWYRQAPGKERELVAAIRRGGSTYYADSVKGRFTISRDNAKNTVYLQMNSLKPEDTAVYYCAAVIYRDGTIYDYWGQGTQVTVSS | high polyreactivity
QVQLVESGGGLVQAGGSLRLSCAASGNTFPRYVMGWYRQAPGKERELVADITRRGGSTYYADSVKGRFTISRDNAKNTVYLQMNSLKPEDTAVYYCAALYLYGHQFYNDYYYWGQGTQVTVSS | high polyreactivity
QVQLVESGGVLVQAGGSLRLTCAASGFIFKIYAMGWYRQAPGKERELVARITRSGGSTYYADSVKGRFTNSRDNAKNTVYLQMNSLKPEDTAVYYCNAELFRYVRYEYWGQGTQVTVSS | high polyreactivity
QVQLVESGGGLVQAGGSLRLSCAASGGIFLPNAMGWYRQAPGKERELVAAISTGGSTNYADSVKGRFTISRDNAKNTVYLQMNSLKPEDTAVYYCAATPYNYVGFSRGGDYWGQGTQVTVSS | low polyreactivity
QVQLVESGGGLVQAGGSLRLSCAASGRTFPYNAMGWYRPAPGKERELVAAISGRGGSTYYADYVKGRFTISRDNAKNTVYLQMNSLKPEDTAVYYCAARLPWSYYRTQGYNYWGQGTQVTVSS | high polyreactivity
QVQLVESGGGLVQAGGSLRFSCAASGRTLVYNGMGWYRPAPGKERELVAAITTDGGDTYYADSVKGRFTISRDNAKNTVYLQMDSLKPEDTAVYYCAADYVALYYWYDYWGQGTQVTVSS | low polyreactivity
QVQLVESGGGLVQAGGSLRLSCAASARIVRKYTMGWFRQAPGKERELVAAISRNGGDTYYADSVKGRFTISRDNAKNTVYLQMHSLKPEDTAVYYCNARTPTDSTHFDYWGQGTQVTVSS | low polyreactivity
QVQLVESGGGLVQAGGSLRLSCAASGFIFAYYAMGWYRQAAGKERELVAAITSDGSTYYADSVKGRFTISRDNAKNTVYLQMNSLKPEDTAVYYCNTYWVLRPGYNYWGQGTQVTVSS | high polyreactivity
QVQLVESGGGIVQAGGSLRLSCAASGSILSTYAMGWYRQAPGKERELVDSISSNAGSTYYSDSVKGRFTISRDNAKNTVYLQMNSLKPEDSAVYYCNKVYGGGTYDYWGQGTQVTVSS | low polyreactivity
